# Source: PMC8775495
# Legend:
# [1] = target: recombinant Agrocybe cylindracea galectin (Agrocybe cylindracea); experiment: not stated; in solution; shown in Figure S1, whose legend was not shown
# WA20_H86K = experiment: as above
substance,measurement,setting,value
recombinant Agrocybe cylindracea galectin (natural protein),stoichiometry N,[1],2
WA20_H86K,stoichiometry N,WA20_H86K,2
